Test results reported in paper doi:10.1101/2021.09.24.461649 (bioRxiv, 2021).

Biological target: the molecule itself
Assay: SEC

B1: EspC (ESX-1 secreted protein C), wild type (natural protein)
chain: MMTENLTVQPERLGVLASHHDNAAVDASSGVEAAAGLGESVAITHGPYCSQFNDTLNVYLTAHNALGSSLHTAGVDLAKSLRIAAKIYSEADEAWRKAIDGLFT
- stoichiometry N: 6
